From patent US20210269520A1 (Eli Lilly, published 2021)

Columns and labels:
[1] = target: T1, human CD19, membrane-bound, on cells (human, UniProt P15391 20-556); experiment: MSD-SET solution equilibrium titration at 37° C., fixed CHO cells expressing human CD19; geometric mean of 3 replicates
T1 construct: The CHO cells were fixed with paraformaldehyde for MSD-SET; also called human CD19 expressing CHO cells; CD19 on Daudi cells and primary human B cells
T1 sequence: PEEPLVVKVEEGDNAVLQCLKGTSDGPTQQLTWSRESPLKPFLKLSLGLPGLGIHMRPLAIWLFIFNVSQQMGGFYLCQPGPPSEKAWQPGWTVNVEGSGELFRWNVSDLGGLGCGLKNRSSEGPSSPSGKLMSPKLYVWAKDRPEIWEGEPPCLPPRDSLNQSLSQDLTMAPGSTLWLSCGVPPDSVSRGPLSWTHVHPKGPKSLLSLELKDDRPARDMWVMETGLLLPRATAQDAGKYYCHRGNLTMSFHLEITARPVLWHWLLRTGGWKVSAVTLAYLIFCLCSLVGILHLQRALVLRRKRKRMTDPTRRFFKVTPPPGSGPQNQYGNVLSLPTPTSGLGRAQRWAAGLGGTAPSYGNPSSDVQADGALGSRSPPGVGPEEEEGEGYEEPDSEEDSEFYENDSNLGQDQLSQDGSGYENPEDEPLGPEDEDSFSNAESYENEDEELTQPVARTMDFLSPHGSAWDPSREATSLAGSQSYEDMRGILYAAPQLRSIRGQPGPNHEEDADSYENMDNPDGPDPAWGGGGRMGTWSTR
Procedure: (§1) Following incubation, cells are pelleted by centrifugation. One hundred microliters of the clarified supernatant from the plate is transferred to the prepared MSD plate and incubated on a plate shaker at room temperature for 60 minutes. Following incubation, the plate is washed 3× with TBST, then 100 μL of 1 μg/mL biotinylated goat anti-human IgG primary antibody (Southern Biotech, Catalog 2010-08) in 1% Blocker A is added to all wells. This is incubated on a plate shaker at room temperature for 60 minutes. The plate was washed 3× with TBST, then 100 μL of 1 μg/mL SULFO-TAG streptavidin (Meso Scale Discovery, P/N R32AD-1) in 1% Blocker A was added to all wells. This was incubated on a plate shaker at room temperature for 60 minutes. The plate is washed 3× with TBST, then 1× Read Buffer T (Meso Scale Discovery, P/NR92TC-1) is added immediately before reading the plate. Dissociation constant (KD) and a least common multiplier (LCM) to account for unknown antigen concentrations on cells are globally fit from the MSD-SET data to an equilibrium binding equation (see Darling and Brault, 2005, Kinetic Exclusion Assay Technology: Characterization of Molecular Interactions. Assay and Drug Development Technologies 2: 647-657) using non-linear regression in GraphPad Prism.

[2] = target: T2, human CD19 extracellular domain protein (human, UniProt P15391 20-291, biotinylated in the FIG. 2 ELISA and in the Fab screening (sites not given)); experiment: sandwich ELISA: antibody captured on goat anti-human kappa, biotinylated human CD19 ECD titrated (20 ug/mL to 9 ng/mL), about 16 h wash at 37 C, neutravidin-alkaline phosphatase, absorbance at 560 nm
T2 construct: also called CD19 extracellular domain (ECD) protein; biotinylated human CD19 ECD antigen
T2 sequence: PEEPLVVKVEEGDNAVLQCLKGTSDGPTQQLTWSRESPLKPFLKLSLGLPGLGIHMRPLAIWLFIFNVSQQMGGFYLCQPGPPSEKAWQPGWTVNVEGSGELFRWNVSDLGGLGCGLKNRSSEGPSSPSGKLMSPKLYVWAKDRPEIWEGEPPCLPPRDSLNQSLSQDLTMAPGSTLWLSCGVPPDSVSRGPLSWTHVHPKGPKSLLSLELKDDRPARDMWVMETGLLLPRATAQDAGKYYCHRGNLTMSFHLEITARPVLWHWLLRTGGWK
Procedure: The ELISA assay is performed as follows. A 96 well microtiter plate is coated overnight at 4° C. using 50 μL/well of goat anti-human kappa polyclonal antibody diluted to 5 μg/mL in phosphate buffered saline (PBS). Following overnight incubation, the plate is aspirated and blocked using 200 μL of casein buffer for 1 hour at room temperature. The plate is washed three times using PBST (PBS with 0.1% Tween). The anti-human CD19 antibodies are diluted to 5 μg/mL in PBS casein and 50 μL added to each column of the anti-human kappa coated casein blocked plate for 1 hour at 37° C. The plate is washed three times using PBST. Biotinylated human CD19 extracellular domain protein is serially diluted from 20 μg/mL to 9 ng/mL and 50 μL added to the plates and incubated for 1 hour at 37° C. The plate is washed three times using PBST and then transferred to a beaker containing 1 liter of PBST and incubated with stirring overnight (approx. 16 hr) at 37° C. The wash buffer is aspirated and 50 μL of neutravidin alkaline phosphatase-conjugate diluted 1:1000 in casein buffer is added and incubated for 1 hour at 37° C. The plate is washed three times using PBS 0.1% Tween. Fifty μL of AMP-PMP substrate diluted 1:35 in deionized water is added and the absorbance at 560 nm read on a Spectramax plate reader.

[3] = target: T1, human CD19, membrane-bound, on cells; experiment: cell-based or functional assay
[4] = target: T1, human CD19, membrane-bound, on cells; experiment: cell-based or functional assay; remark: listed apart in the source
[5] = target: T3, cynomolgus monkey CD19, membrane-bound, stably expressed on CHO cells (cynomolgus monkey, UniProt A0A2K5W8L9 20-557); experiment: MSD-SET solution equilibrium titration at 37° C., fixed CHO cells expressing cynomolgus monkey CD19; geometric mean of 3 replicates
T3 construct: whole, on cells; The cells were fixed with paraformaldehyde for MSD-SET; also called cynomolgus monkey CD19 expressing CHO cells
T3 sequence: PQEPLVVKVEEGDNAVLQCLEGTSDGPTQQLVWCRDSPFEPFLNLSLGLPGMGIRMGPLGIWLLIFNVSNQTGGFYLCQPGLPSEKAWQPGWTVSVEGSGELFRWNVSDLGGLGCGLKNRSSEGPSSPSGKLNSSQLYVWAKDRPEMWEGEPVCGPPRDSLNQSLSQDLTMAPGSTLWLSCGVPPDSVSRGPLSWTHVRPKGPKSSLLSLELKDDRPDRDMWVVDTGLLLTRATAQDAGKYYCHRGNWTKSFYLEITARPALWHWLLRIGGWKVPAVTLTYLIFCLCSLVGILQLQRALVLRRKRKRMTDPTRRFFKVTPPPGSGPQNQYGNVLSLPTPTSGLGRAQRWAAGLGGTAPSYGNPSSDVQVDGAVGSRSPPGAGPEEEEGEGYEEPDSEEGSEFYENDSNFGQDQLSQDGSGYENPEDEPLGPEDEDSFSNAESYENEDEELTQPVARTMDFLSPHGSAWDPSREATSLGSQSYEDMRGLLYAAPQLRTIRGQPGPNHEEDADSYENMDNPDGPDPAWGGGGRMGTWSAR
Procedure: as §1

[6] = target: T4, human CD19 Fc fusion protein (human, UniProt P15391 20-291); experiment: SPR (Biacore T200) at 37° C., CD19-Fc captured on a protein A chip, Fab injected, KD = koff/kon
T4 construct: Bought from R&D Systems; also called recombinant CD19-Fc; not shown: Fc part of a bought fusion protein
T4 sequence: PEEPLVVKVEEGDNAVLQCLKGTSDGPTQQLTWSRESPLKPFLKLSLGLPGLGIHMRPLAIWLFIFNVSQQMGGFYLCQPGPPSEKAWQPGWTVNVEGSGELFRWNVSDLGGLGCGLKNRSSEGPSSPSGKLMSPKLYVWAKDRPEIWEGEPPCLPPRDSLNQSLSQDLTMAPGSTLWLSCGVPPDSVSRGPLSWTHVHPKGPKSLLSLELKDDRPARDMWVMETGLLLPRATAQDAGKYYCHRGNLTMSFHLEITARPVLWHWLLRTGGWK
Procedure: (§2) Biacore T200 instrument (GE Healthcare Life Sciences), reagents, and Biacore T200 Evaluation Software Ver 3.1 are used for the surface plasmon resonance analysis of human, mouse and cynomolgus monkey CD19 binding to the Fab fragment of CB3f. Recombinant CD19-Fc proteins are purchased from R&D Systems. A protein A sensor chip (GE protein A chip P/N 2912755) is used. Running buffer is 1×HBS-EP+ (Teknova P/N H8022), and running temperature is 37° C.
(§3) CD19 Fc fusion proteins are diluted to 3 μg/mL in running buffer, and approximately 60 RU each of human, cynomolgus monkey, and mouse proteins are captured in flow cells (Fc) 2, 3 and 4, respectively. CB3f Fab fragment is diluted to 1000 nM in running buffer and then 5-fold serially diluted in running buffer to 1.6 nM for a total of 5 dilutions. Fab or buffer blank is injected at 50 μL/min for 300 seconds followed by a 900 second dissociation phase. Regeneration is performed by injecting 10 mM glycine pH 1.5 for 30 seconds at 50 μL/min over all Fc. Reference-subtracted data is collected as Fc2-Fc1, Fc3-Fc1 and Fc4-Fc1, and then reference-subtracted data is blank subtracted. The on-rate (kₒₙ) and off-rate (koff) are fit using the “1:1 Binding” model. The affinity (KD) is calculated from the binding kinetics according to the relationship: KD=koff/kₒₙ.

[7] = target: T5, cynomolgus monkey CD19 Fc fusion protein (cynomolgus monkey, UniProt A0A2K5W8L9 20-292); experiment: as above
T5 construct: Bought from R&D Systems; also called recombinant CD19-Fc; not shown: Fc part of a bought fusion protein
T5 sequence: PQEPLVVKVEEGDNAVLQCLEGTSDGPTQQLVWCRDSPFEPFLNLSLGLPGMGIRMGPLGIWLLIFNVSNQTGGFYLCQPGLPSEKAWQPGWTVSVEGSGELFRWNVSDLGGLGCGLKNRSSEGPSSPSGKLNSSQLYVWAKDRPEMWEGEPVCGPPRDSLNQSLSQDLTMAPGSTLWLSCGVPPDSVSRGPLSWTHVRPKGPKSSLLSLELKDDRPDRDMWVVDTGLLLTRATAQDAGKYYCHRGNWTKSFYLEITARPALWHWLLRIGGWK
Procedure: as §2, §3

[8] = target: T6, mouse CD19 Fc fusion protein (mouse, UniProt P25918 19-287, limits assumed); experiment: SPR (Biacore T200) at 37° C., CD19-Fc captured on a protein A chip, Fab injected
T6 construct: Bought from R&D Systems; also called recombinant CD19-Fc; not shown: Fc part of a bought fusion protein
T6 sequence (looked up): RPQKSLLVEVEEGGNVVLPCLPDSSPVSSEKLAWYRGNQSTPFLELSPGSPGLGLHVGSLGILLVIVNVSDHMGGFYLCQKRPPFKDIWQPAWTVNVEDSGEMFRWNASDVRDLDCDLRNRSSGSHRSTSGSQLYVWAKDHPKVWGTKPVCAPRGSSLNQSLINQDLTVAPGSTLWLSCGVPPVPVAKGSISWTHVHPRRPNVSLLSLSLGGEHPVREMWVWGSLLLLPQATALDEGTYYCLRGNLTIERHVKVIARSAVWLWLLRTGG
Procedure: as §2, §3

[9] = target: T4, human CD19 Fc fusion protein; experiment: SPR (Biacore T200) at 37° C., CD19-Fc captured on a protein A chip, Fab injected, 1:1 binding model
Procedure: as §2, §3

[10] = target: T5, cynomolgus monkey CD19 Fc fusion protein; experiment: as above
Procedure: as §2, §3

B1: anti-human CD19 mAb CB3f (IgG4 isotype) (antibody, V domains shown)
VH: QVQLVQSGAEVKKPGSSVKVSCKASGHTISSYAYSWVRQAPGQGLEWMGDIIPAYGSPNYAQKFQGRVTITADESTSTAYMELSSLRSEDTAVYYCAREDFGKNYAMDVWGQGTLVTVSS
VL: EIVLTQSPGTLSLSPGERATLSCRASQHVSSHYLAWYQQKPGQAPRLLIYGASSRATGIPDRFSGSGSGTDFTLTISRLEPEDFAVYYCQHYGQSQFTFGQGTKVEIKR
notes: also called anti-human CD19 mAb1
- Kd [1]: 3.35 pM
- EC50 (read off the curve) [2]: ~0.8 µg/mL
- IC50, inhibition of primary B cell proliferation ([3H]-thymidine), Average of 12 donors [3]: 7 pM
- IC50, inhibition of primary B cell proliferation ([3H]-thymidine), Donor 1 [3]: 6 pM
- IC50, inhibition of primary B cell proliferation ([3H]-thymidine), Donor 2 [3]: 9 pM
- IC50, inhibition of primary B cell proliferation ([3H]-thymidine), Donor 3 [3]: 3 pM
- IC50, inhibition of primary B cell proliferation ([3H]-thymidine), Donor 4 [3]: 6 pM
- IC50, inhibition of primary B cell proliferation ([3H]-thymidine), Donor 5 [3]: 4 pM
- IC50, inhibition of primary B cell proliferation ([3H]-thymidine), Donor 6 [3]: 3 pM
- IC50, inhibition of primary B cell proliferation ([3H]-thymidine), Donor 7 [3]: 3 pM
- IC50, inhibition of primary B cell proliferation ([3H]-thymidine), Donor 8 [3]: 5 pM
- IC50, inhibition of primary B cell proliferation ([3H]-thymidine), Donor 9 [3]: 5 pM
- IC50, inhibition of primary B cell proliferation ([3H]-thymidine), Donor 10 [3]: 28 pM
- IC50, inhibition of primary B cell proliferation ([3H]-thymidine), Donor 11 [3]: 4 pM
- IC50, inhibition of primary B cell proliferation ([3H]-thymidine), Donor 12 [3]: 5 pM
- IC50, inhibition of B cell activation in whole blood (reduction of CD69+ B cells), Average [4]: 8 pM
- IC50, inhibition of B cell activation in whole blood (reduction of CD69+ B cells), Donor 1 [4]: 15 pM
- IC50, inhibition of B cell activation in whole blood (reduction of CD69+ B cells), Donor 2 [4]: 0.6 pM
- IC50, inhibition of B cell activation in whole blood (reduction of CD69+ B cells), Donor 3 [4]: 8 pM
- Kd [5]: 45.2 pM

B2: Fab fragment of CB3f (Fab, V domains shown)
VH: QVQLVQSGAEVKKPGSSVKVSCKASGHTISSYAYSWVRQAPGQGLEWMGDIIPAYGSPNYAQKFQGRVTITADESTSTAYMELSSLRSEDTAVYYCAREDFGKNYAMDVWGQGTLVTVSS
VL: EIVLTQSPGTLSLSPGERATLSCRASQHVSSHYLAWYQQKPGQAPRLLIYGASSRATGIPDRFSGSGSGTDFTLTISRLEPEDFAVYYCQHYGQSQFTFGQGTKVEIK
notes: also called CB3f Fab fragment; CB3f Fab
- Kd [6]: 76.8 pM
- Kd [7]: 94500 pM
- binding result [8]: no binding (tested: 1 µM)
- koff [9]: 0.000235 s⁻¹
- kon [9]: 3.2e+06 M⁻¹ s⁻¹
- koff [10]: 0.0978 s⁻¹
- kon [10]: 1.04e+06 M⁻¹ s⁻¹
